Test results as given in PMC12053661.

B1: Spt6-3XFLAG (wild type) [S. cerevisiae (endogenous in strain S288c)] / Spn1 (wild type) [S. cerevisiae (endogenous in strain S288c)] (parent)
chain 1: MEETGDSKLVPRDEEEIVNDNDETKAPSEEEEGEDVFDSSEEDEDIDEDEDEARKVQEGFIVNDDDENEDPGTSISKKRRKHKRREREEDDRLSEDDLDLLMENAGVERTKASSSSGKFKRLKRVGDEGNAAESESDNVAASRQDSTSKLEDFFSEDEEEEESGLRNGRNNEYGRDEEDHENRNRTADKGGILDELDDFIEDDEFSDEDDETRQRRIQEKKLLREQSIKQPTQITGLSSDKIDEMYDIFGDGHDYDWALEIENEELENGNDNNEAEEEEIDEETGAIKSTKKKISLQDIYDLEDLKKNLMTEGDMKIRKTDIPERYQELRAGITDYGNMSSEDQELERNWIAEKISVDKNFDANYDLTEFKEAIGNAIKFITKENLEVPFIYAYRRNYISSREKDGFLLTEDDLWDIVSLDIEFHSLVNKKDYVQRFYAELHIDDPIVTEYFKNQNTASIAELNSLQDIYDYLEFKYANEINEMFINHTGKTGKKHLKNSSYEKFKASPLYQAVSDIGISAEDVGENISSQHQIHPPVDHPSSKPVEVIESILNANSGDLQVFTSNTKLAIDTVQKYYSLELSKNTKIREKVRSDFSKYYLADVVLTAKGKKEIQKGSLYEDIKYAINRTPMHFRRDPDVFLKMVEAESLNLLSVKLHMSSQAQYIEHLFQIALETTNTSDIAIEWNNFRKLAFNQAMDKIFQDISQEVKDNLTKNCQKLVAKTVRHKFMTKLDQAPFIPNVRDPKIPKILSLTCGQGRFGADAIIAVYVNRKGDFIRDYKIVDNPFDKTNPEKFEDTLDNIIQSCQPNAIGINGPNPKTQKFYKRLQEVLHKKQIVDSRGHTIPIIYVEDEVAIRYQNSERAAQEFPNKPPLVKYCIALARYMHSPLLEYANLTSEEVRSLSIHPHQNLLSSEQLSWALETAFVDIVNLVSVEVNKATDNNYYASALKYISGFGKRKAIDFLQSLQRLNEPLLARQQLITHNILHKTIFMNSAGFLYISWNEKRQKYEDLEHDQLDSTRIHPEDYHLATKVAADALEYDPDTIAEKEEQGTMSEFIELLREDPDRRAKLESLNLESYAEELEKNTGLRKLNNLNTIVLELLDGFEELRNDFHPLQGDEIFQSLTGESEKTFFKGSIIPVRVERFWHNDIICTTNSEVECVVNAQRHAGAQLRRPANEIYEIGKTYPAKVIYIDYANITAEVSLLDHDVKQQYVPISYSKDPSIWDLKQELEDAEEERKLMMAEARAKRTHRVINHPYYFPFNGRQAEDYLRSKERGEFVIRQSSRGDDHLVITWKLDKDLFQHIDIQELEKENPLALGKVLIVDNQKYNDLDQIIVEYLQNKVRLLNEMTSSEKFKSGTKKDVVKFIEDYSRVNPNKSVYYFSLNHDNPGWFYLMFKINANSKLYTWNVKLTNTGYFLVNYNYPSVIQLCNGFKTLLKSNSSKNRMNNYR
chain 2: MSTADQEQPKVVEATPEDGTASSQKSTINAENENTKQNQSMEPQETSKGTSNDTKDPDNGEKNEEAAIDENSNVEAAERKRKHISTDFSDDDLEKEEHNDQSLQPTVENRASKDRDSSATPSSRQELEEKLDRILKKPKVRRTRRDEDDLEQYLDEKILRLKDEMNIAAQLDIDTLNKRIETGDTSLIAMQKVKLLPKVVSVLSKANLADTILDNNLLQSVRIWLEPLPDGSLPSFEIQKSLFAALNDLPVKTEHLKESGLGRVVIFYTKSKRVEAQLARLAEKLIAEWTRPIIGASDNYRDKRIMQLEFDSEKLRKKSVMDSAKNRKKKSKSGEDPTSRGSSVQTLYEQAAARRNRAAAPAQTTTDYKYAPVSNLSAVPTNARAVGVGSTLNNSEMYKRLTSRLNKKHK
B2: Spn1 (wild type) [S. cerevisiae (endogenous in strain S288c)] / Spt6-3XFLAG (wild type) [S. cerevisiae (endogenous in strain S288c)] (parent)
chain 1: B1 chain 2
chain 2: B1 chain 1

Variants of: B1
Assay: Spt6-3XFLAG affinity purification with quantitative mass spectrometry
Details: shift to non-permissive temperature, point at -log10 p-value about 3.5, read off a plot

Variant | screen value (log2 fold-change)
chain 1 F249K | -4.2

Variants of: B2
Assay: as above
Details: with Spt6-3XFLAG (wild type) [S. cerevisiae (endogenous in strain S288c)]; shift to non-permissive temperature; point at -log10 p-value about 3.4; read off a plot

Variant | screen value (log2 fold-change)
chain 1 MSTADQEQPKVVEATPEDGTASSQKSTINAENENTKQNQSMEPQETSKGTSNDTKDPDNGEKNEEAAIDENSNVEAAERKRKHISTDFSDDDLEKEEHNDQSLQPTVENRASKDRDSSATPSSRQELEEKLDRILKKPKVRRTRRDEDDLEQYLDEKILRLKDEMNIAAQLDIDTLNKRIETGDTSLIAMQKVKLLPKVVSVLSKANLADTILDNNLLQSVRIWLEPLPDGSLPSFEIQKSLFAALNDLPVKTEHLKESGLGDVVIFYTKSKRVEAQLARLAEKLIAEWTRPIIGASDNYRDKRIMQLEFDSEKLRKKSVMDSAKNRKKKSKSGEDPTSRGSSVQTLYEQAAARRNRAAAPAQTTTDYKYAPVSNLSAVPTNARAVGVGSTLNNSEMYKRLTSRLNKKHK [chain 1 R263D] | -4

Same assay, conditions: with Spt6-3XFLAG (wild type) [S. cerevisiae (endogenous in strain S288c)]; shift to non-permissive temperature; point at -log10 p-value about 3.5; read off a plot

Variant | screen value (log2 fold-change)
chain 1 MSTADQEQPKVVEATPEDGTASSQKSTINAENENTKQNQSMEPQETSKGTSNDTKDPDNGEKNEEAAIDENSNVEAAERKRKHISTDFSDDDLEKEEHNDQSLQPTVENRASKDRDSSATPSSRQELEEKLDRILKKPKVRRTRRDEDDLEQYLDEKILRLKDEMNIAAQLDIDTLNKRIETGDTSLIAMQKVKLLPKVVSVLSKANLADTILDNNLLQSVRIWLEPLPDGSLPSFEIQKSLFAALNDLPVKTEHLKESGLGRVVIEYTKSKRVEAQLARLAEKLIAEWTRPIIGASDNYRDKRIMQLEFDSEKLRKKSVMDSAKNRKKKSKSGEDPTSRGSSVQTLYEQAAARRNRAAAPAQTTTDYKYAPVSNLSAVPTNARAVGVGSTLNNSEMYKRLTSRLNKKHK [chain 1 F267E] | -4.3
